Experimental data as given in patent US20030113787A1 (Takeda / Millennium, published 2003).

Experiments:
Bcl-10-CARD/AD = target: T1, Bcl-10-CARD/AD (mouse, UniProt Q04207 364-549; O95999 1-104); assay: cell-based or functional assay
T1 sequence (looked up): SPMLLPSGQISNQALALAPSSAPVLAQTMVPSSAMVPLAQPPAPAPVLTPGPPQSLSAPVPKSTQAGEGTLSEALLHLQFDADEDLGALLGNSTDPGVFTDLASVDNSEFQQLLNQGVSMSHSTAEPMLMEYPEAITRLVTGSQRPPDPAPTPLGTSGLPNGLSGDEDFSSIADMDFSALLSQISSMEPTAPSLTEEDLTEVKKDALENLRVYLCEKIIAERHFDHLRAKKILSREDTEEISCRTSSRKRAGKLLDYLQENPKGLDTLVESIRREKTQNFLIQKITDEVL

Myc-tagged CARD-9 = target: T2, Myc-tagged CARD-9 (human, UniProt Q9H257 1-536); assay: co-localization by immunofluorescence in co-transfected Rat-1 cells
T2 construct: Expressed in 293T or Rat-1 cells; Species not restated; also called pCI-Card-9-myc
T2 sequence: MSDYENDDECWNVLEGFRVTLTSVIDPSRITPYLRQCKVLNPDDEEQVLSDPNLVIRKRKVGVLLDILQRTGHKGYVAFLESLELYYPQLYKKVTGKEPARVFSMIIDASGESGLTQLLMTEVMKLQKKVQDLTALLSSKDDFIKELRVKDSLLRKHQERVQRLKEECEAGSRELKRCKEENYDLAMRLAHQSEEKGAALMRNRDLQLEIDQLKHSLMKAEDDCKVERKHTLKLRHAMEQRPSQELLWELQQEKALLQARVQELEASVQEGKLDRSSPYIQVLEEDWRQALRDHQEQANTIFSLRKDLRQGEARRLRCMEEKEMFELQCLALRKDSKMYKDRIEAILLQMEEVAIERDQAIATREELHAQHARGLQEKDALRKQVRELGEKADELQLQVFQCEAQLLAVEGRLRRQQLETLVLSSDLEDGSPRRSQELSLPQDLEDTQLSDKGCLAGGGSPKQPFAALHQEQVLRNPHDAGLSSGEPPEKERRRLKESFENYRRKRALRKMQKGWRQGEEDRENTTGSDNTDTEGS
From the text: To determine the cellular localization of CARD-9, and to confirm that CARD-9 associated intracellularly with Bcl-10 when the two proteins were co-expressed, Rat-1 cells were transfected with a Myc-tagged vector encoding full-length CARD-9, and with an HA-tagged vector encoding full-length Bcl-10. The expressed proteins were detected using a mixture of a monoclonal anti-Myc antibody and a polyclonal rabbit anti-HA antibody. Briefly, Rat-1 cells were transfected in glass chamber slides (BioCoat, Becton-Dickinson Labware) with pCI-Bcl-10-HA or pCI-Card-9-myc, alone or together, using FuGENE-6 (Roche Molecular Biochemicals) for 20 hours. Cells were fixed in 4% paraformaldehyde, permeabilized and blocked in buffer containing 0.4% Trition X-100, and sequentially incubated with primary and secondary antibodies. Antibodies were rabbit anti-HA polyclonal Y-11 (Santa Cruz Biotechnology), mouse anti-myc monoclonal 9E10 (Oncogene Research Products), Alexa-488 Goat anti-mouse IgG (Molecular Probes) and Texas-Red Goat anti-rabbit IgG (Jackson Immunoresearch Laboratories). No cross-reactivity was observed between any of the antibodies. Nuclei were stained with Hoechst 33258. […]

Myc-CARD-11/CC [1] = target: T3, Myc-CARD-11/CC (human, UniProt Q9BXL7 129-449); assay: co-localization by immunofluorescence in co-transfected cells
T3 construct: NOT the whole entry: only the coiled-coil region stood in the assay
T3 sequence: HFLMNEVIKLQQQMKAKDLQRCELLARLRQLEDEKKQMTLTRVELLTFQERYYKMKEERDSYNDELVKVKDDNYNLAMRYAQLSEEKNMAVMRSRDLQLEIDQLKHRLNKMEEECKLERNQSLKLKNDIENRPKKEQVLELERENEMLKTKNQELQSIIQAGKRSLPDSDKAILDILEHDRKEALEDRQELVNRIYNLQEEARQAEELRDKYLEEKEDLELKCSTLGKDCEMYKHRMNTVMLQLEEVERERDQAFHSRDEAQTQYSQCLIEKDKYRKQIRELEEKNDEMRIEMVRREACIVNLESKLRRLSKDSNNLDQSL

CARD-11/DCARD = target: T4, CARD-11/DCARD (human, UniProt Q9BXL7 134-1154); assay: as above
T4 construct: also called CARD-11 truncation mutant lacking the N-terminal CARD
T4 sequence: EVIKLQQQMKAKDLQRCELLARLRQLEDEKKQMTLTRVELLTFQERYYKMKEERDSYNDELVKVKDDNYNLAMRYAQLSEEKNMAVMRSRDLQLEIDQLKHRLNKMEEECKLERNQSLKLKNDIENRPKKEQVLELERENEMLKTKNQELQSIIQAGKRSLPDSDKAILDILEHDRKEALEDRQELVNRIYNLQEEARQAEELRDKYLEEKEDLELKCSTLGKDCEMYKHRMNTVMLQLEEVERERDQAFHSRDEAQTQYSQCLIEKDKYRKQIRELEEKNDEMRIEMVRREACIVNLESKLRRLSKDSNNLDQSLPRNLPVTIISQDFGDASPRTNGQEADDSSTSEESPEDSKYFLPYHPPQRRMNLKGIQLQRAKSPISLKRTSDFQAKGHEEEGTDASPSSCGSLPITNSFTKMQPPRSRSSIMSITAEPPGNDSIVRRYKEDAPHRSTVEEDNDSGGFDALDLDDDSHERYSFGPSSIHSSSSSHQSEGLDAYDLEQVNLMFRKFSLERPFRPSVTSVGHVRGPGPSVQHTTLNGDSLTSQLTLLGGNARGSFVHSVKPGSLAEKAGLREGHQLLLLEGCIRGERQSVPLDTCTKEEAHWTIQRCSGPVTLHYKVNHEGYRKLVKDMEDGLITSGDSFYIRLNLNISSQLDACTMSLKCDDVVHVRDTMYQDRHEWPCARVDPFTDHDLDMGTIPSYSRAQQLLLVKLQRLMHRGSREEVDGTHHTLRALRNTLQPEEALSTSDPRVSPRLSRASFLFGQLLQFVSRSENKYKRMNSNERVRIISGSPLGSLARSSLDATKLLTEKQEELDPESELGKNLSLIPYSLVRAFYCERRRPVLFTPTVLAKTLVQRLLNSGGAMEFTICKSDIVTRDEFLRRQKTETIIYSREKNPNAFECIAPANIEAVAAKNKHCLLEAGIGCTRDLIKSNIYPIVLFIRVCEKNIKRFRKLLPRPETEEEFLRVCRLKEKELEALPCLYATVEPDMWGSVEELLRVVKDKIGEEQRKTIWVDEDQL

[2] = target: T5, Myc-tagged CARD-11 (full-length) (human, UniProt Q9BXL7 8-1154); assay: as above
T5 construct: Used in the co-localization and Bcl-10 phosphorylation experiments; also called full-length CARD-11
T5 sequence: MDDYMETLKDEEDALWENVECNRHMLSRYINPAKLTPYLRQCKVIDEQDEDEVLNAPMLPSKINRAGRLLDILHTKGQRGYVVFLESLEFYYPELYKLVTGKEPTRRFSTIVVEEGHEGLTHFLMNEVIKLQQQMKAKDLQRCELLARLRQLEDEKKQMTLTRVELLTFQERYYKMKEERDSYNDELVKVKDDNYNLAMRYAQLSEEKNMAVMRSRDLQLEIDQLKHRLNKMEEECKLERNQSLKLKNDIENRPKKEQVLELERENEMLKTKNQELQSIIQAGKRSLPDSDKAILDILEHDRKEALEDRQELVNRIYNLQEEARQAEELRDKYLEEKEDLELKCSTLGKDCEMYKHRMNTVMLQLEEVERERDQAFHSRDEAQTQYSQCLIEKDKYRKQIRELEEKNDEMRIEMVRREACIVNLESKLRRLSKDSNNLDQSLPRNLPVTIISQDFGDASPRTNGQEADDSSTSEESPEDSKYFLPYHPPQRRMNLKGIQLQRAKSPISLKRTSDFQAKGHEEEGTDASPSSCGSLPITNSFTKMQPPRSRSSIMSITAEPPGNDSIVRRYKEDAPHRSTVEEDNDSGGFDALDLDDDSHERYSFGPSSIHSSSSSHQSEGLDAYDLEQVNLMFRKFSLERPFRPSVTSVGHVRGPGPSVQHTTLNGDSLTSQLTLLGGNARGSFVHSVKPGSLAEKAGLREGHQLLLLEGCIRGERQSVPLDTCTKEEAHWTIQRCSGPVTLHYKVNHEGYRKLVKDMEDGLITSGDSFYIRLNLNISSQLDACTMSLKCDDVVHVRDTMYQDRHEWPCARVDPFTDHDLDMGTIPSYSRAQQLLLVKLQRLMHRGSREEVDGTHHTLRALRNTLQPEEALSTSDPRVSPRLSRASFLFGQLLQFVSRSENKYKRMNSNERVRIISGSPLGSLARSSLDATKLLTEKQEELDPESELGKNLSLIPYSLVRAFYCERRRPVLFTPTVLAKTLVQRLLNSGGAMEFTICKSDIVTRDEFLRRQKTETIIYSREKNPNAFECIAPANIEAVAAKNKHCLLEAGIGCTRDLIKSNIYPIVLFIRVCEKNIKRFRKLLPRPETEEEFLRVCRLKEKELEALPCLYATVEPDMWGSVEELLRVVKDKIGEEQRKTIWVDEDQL

Myc-CARD-11/CC [3] = target: T3, Myc-CARD-11/CC; assay: co-immunoprecipitation from transfected 293T cells (anti-Flag IP, anti-Myc blot)
Procedure: The interaction between CARD-11 and Bcl-10 was next examined in cells by overexpressing CARD-11 is cells and performing co-immunoprecipitation assays. These assays were performed as follows. Plasmids expressing CARD-11 with C-terminal Myc epitopes were constructed using pCMV-Tag 5A (Stratagene Corp., La Jolla, Calif.). Constructs encoding epitope-tagged Bcl-10 were described previously (Srinivasula et al., […] J. Biol. Chem. 274:17946). 293T cells transfected with the plasmids were lysed in 50 mM Tris, pH 8.0, 120 mM NaCl, 1 mM EDTA, 0.5% Nonidet P-40 buffer and incubated with anti-Flag-M2 monoclonal antibody (Sigma Co.). The immune complexes were precipitated with protein G-Sepharose (Amersham Pharmacia Bio), washed extensively, and then subjected to SDS-polyacrylamide gel electrophoresis and immunoblotted with polyclonal anti-Myc antibodies (Santa Cruz Biotechnology, Inc.).

B1: CARD10-CARD/BD (other, yeast)
chain: MKLLSSIEQACDICRLKKLKCSKEKPKCAKCLKNNWECRYSPKTKRSPLTRAHLTEVESRLERLEQLFLLIFPREDLDMILKMDSLQDIKALLTGLFVQDNVNKDAVTDRLASVETDMPLTLRQHRISATSSSEESSNKGQRQLTVSMPGRAEAGEAEEEAGAGSGSEAEEDALWERIEGVRHRLARALNPAKLTPYLRQCRVIDEQDEEEVLSTYRFPCRVNRTGRLMDILRCRGKRGYEAFLEALEFYYPEHFTLLTGQEPAQRCSMILDEEGPEGLTQFLMT
relative luciferase activity (mammalian two-hybrid reporter) (Bcl-10-CARD/AD): 340 fold

B2: HA-tagged Bcl-10 (other, UniProt O95999 1-233, looked up, not shown: small tags and cut ends)
chain: MEPTAPSLTEEDLTEVKKDALENLRVYLCEKIIAERHFDHLRAKKILSREDTEEISCRTSSRKRAGKLLDYLQENPKGLDTLVESIRREKTQNFLIQKITDEVLKLRNIKLEHLKGLKCSSCEPFPDGATNNLSRSNSDESNFSEKLRASTVMYHPEGESSTTPFFSTNSSLNLPVLEVGRTENTIFSSTTLPRPGDPGAPPLPPDLQLEEEGTCANSSEMFLPLRSRTVSRQ
notes: Expressed in Rat-1 or other transfected cells; also called pCI-Bcl-10-HA; HA-Bcl-10
binding result (Myc-tagged CARD-9): binds | binding result (Myc-CARD-11/CC [1]): no binding | binding result (CARD-11/DCARD): no binding | binding result [2]: binds

B3: Flag-tagged Bcl-10 (other, UniProt O95999 1-233, looked up, not shown: small tags and cut ends)
chain: B2 chain
notes: Expressed in 293T cells; also called Flag-Bcl-10
binding result (Myc-CARD-11/CC [3]): no binding
